Publication PMC11518761, “Making the effect visible – OX40 targeting nanobodies for in vivo imaging of activated T cells” (Frontiers in Immunology, 2024)
Values belong to the binder of their own block, whether it stands above or below them.

Assays:
[1] = biological target: T1, recombinant hOX40, extracellular part (Leu 29 - Ala 216) (human, UniProt P43489 29-216); assay: BLI
T1 chain: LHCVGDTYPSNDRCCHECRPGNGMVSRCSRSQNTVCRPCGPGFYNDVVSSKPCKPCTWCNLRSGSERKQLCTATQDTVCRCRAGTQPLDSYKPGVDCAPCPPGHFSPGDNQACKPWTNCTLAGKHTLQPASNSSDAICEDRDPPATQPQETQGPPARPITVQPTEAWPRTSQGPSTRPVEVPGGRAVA

[2] = biological target: T1, recombinant hOX40, extracellular part …; assay: BLI
[3] = biological target: T2, human OX40 on HT1080 cells (HT1080-hOX40) (Homo sapiens, UniProt P43489); assay: in vivo optical imaging; 5 µg O18-AF647 i.v. in CD1 nude mice with subcutaneous HT1080-hOX40 or HT1080-WT tumors; imaging over 6 h and ex vivo imaging of explanted tumors; conditions: one partner purified
T2 construct: human OX40 (CD134/TNFRSF4); the construct used for HT1080 cells is not described; source: HT1080 cells stably expressing human OX40, as subcutaneous xenograft tumors in CD1 nude mice

[4] = biological target: T3, hOX40 full length on U2OS cells (U2OS-hOX40) (Homo sapiens, UniProt P43489); assay: flow cytometry on cells; U2OS-hOX40 cells with dilution series of AF647-labeled Nbs (O12, O18 from 2.5 µM; O7, O19 from 10 µM), 4°C, 30 min, FACS buffer; KD as half-maximum binding at equilibrium, four-parametric sigmoidal model; conditions: one partner purified
T3 construct: human OX40 (CD134/TNFRSF4), cDNA GenBank NM_003327.3 in an IRES-eGFP/Blasticidin S deaminase vector; Also used as the target of the functional rows, where hOX40 stood on Jurkat-based OX40 effector cells (Promega); also called cellular expressed hOX40; hOX40 full length (D1-4); source: U2OS cells stably overexpressing hOX40, on the cell surface

[5] = biological target: T4, hOX40 full length on U2OS cells (U2OS-hOX40) (human, UniProt P43489 29-277); assay: FACS
T4 chain: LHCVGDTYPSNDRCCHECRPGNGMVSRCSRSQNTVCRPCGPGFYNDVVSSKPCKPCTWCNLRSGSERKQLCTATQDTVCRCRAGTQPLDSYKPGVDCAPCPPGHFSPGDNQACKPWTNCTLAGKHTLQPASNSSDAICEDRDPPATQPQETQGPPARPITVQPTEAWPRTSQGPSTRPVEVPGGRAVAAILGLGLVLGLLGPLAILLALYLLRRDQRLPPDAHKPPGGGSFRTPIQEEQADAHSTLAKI

[6] = biological target: T5, recombinant hOX40, extracellular part (Leu 29 - Ala 216) (human, UniProt P43489); assay: BLI; biotinylated Nb (5 µg/mL) immobilised on streptavidin biosensors; hOX40 dilution series 0.2 nM - 320 nM, association 300 s, dissociation 720 s; Octet buffer (PBS, 0.1% BSA, 0.02% Tween20); 1:1 ligand-binding model, global fitting; conditions: both partners purified
T5 construct: human OX40 (CD134/TNFRSF4), extracellular part, Leu29 to Ala216; The limits are stated for the immunogen; the BLI methods say only 'hOX40' / 'recombinant hOX40'; also called CD134; TNFRSF4; source: bought: Acrobiosystems, produced in human HEK293 cells

[7] = biological target: T6, murine OX40 on U2OS cells (Mus musculus, UniProt P47741); assay: immunostaining of cells or tissue; live-cell immunofluorescence of U2OS cells expressing hOX40 (stable) or murine OX40 (transient) with 10 -1000 nM AF647-labeled Nbs, 30 min, 4°C; conditions: one partner purified
T6 construct: murine OX40, DNA bought from Sino Biological (Catalog Number MG50808-NM); The catalogue suffix -NM may denote an N-terminal Myc tag (surmised); also called mOX40; source: U2OS cells, transiently transfected, on the cell surface
T6 sequence (P47741 20-272): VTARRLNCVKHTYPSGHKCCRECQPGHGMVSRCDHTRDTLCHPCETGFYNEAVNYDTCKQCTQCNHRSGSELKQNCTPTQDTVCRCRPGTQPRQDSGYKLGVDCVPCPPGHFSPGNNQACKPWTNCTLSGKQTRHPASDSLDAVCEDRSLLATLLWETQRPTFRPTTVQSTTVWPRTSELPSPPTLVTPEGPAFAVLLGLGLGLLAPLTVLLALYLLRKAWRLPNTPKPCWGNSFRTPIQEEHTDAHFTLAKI

[8] = biological target: T7, endogenous hOX40 on activated human T cells (Homo sapiens, UniProt P43489); assay: flow cytometry on cells; hPBMCs of three donors after 24 h PHA-L/IL-2 stimulation, AF647-labeled Nbs (200 nM; 400 nM for T cell subpopulations), 4°C, gated on CD3+ (and CD4+, CD8+, Treg); conditions: one partner purified
T7 construct: human OX40 (CD134/TNFRSF4), endogenous on T cells; also called physiologically expressed hOX40; source: endogenous, hPBMCs of healthy donors stimulated 24 h with PHA-L and IL-2 (CD3+ T cells)

[9] = biological target: hOX40-Nbs with KD values in the pico- to low nanomolar range (O12, O18 and O19); assay: BLI; biotinylated Nb (5 µg/mL) immobilised on streptavidin biosensors; hOX40 dilution series 0.2 nM - 320 nM, association 300 s, dissociation 720 s; Octet buffer (PBS, 0.1% BSA, 0.02% Tween20); 1:1 ligand-binding model, global fitting

B2: AF647-labeled hOX40-Nb O18 (VHH)
VHH: QVQLVESGGGLVQPGGSLRLSCAASGFTLEDYVIGWFRQAPGKEREEVSCISGSGGIRNVADSMEGRATISRDNAKNTVYLQMNSLKPEDTAVYYCAAGFETSYSYSYYCGVHEYDYWGQGTLVTVSS
notes: Uncoupled Nb was removed by Ni-NTA, so the His tag is probably lost on sortase coupling (surmised); also called O18_(AF647); fluorescently-labeled Nb O18; source: E. coli XL-1, purified; sortase A coupling, click labelling with DBCO-AF647, HIC
fold signal intensity in HT1080-hOX40 over HT1080-WT tumors, 6 h post injection [3]: ~7 fold
Kd [4]: ~0.3 nM

B4: AF647-labeled hOX40-Nb O12 (VHH)
VHH: DVQLQESGGGLVQPGGSLRLSCAASGFTLDNYAIGWFRQAPGKEREGVSCISSSGESTNYADSVKGRFTISRDNAKNTVYLQTNSLKPEDTAVYYCAAVDDIGTTVQFMCNMGPYEYDYWGQGSPVTVSS
notes: Uncoupled Nb was removed by Ni-NTA, so the His tag is probably lost on sortase coupling (surmised); also called fluorescent Nb O12; source: E. coli XL-1, purified; sortase A coupling, click labelling with DBCO-AF647, HIC
Kd [4]: ~0.1 nM

B5: AF647-labeled hOX40-Nb O12 (VHH)
VHH: B4 VHH
modifications: C-terminal Gly-Gly-Gly-propyl-azide attached by sortase A and clicked to DBCO-AF647 (labeling ratio 1:1)
Kd [5]: 0.07 nM

B7: AF647-labeled hOX40-Nb O7 (VHH)
VHH: DVQLVESGGGLVQPGGSLRLSCAASGFTFGSYAMGWARQVPGKGLEWVSGIYSDGSTYYADSVKGRFTISRDNAKNTVYLQMNSLKPEDTAVYYCATWGAAAPYDYWGQGTQVTVSS
modifications: C-terminal Gly-Gly-Gly-propyl-azide attached by sortase A and clicked to DBCO-AF647 (labeling ratio 1:1)
Kd [5]: 5.99 nM

B9: AF647-labeled hOX40-Nb O7 (VHH)
VHH: B7 VHH
notes: Uncoupled Nb was removed by Ni-NTA, so the His tag is probably lost on sortase coupling (surmised); also called fluorescent Nb O7; source: E. coli XL-1, purified; sortase A coupling, click labelling with DBCO-AF647, HIC
binding result [7]: binds

B11: hOX40-Nb O19 (VHH)
VHH: QVQLQESGGGLVQPGGSLRLSCAGSTDTFSMSAAVSWARQAPGKGLEWVSSILSDGSTYYADSVRGRFTISRDNANNTGSLQMNNLKVEDTAVYYCTNLRGRLWSNHKDDYGGQGSRVTVSS
notes: source: E. coli XL-1 (pHEN6), purified (IMAC, SEC)
binding result [6]: binds

B12: AF647-labeled hOX40-Nb O19 (VHH)
VHH: B11 VHH
notes: Uncoupled Nb was removed by Ni-NTA, so the His tag is probably lost on sortase coupling (surmised); also called fluorescent Nb O19; source: E. coli XL-1, purified; sortase A coupling, click labelling with DBCO-AF647, HIC
binding result [8]: binds
binding result [4]: binds

B13: AF647-labeled hOX40-Nb O19 (VHH)
VHH: B11 VHH
modifications: C-terminal Gly-Gly-Gly-propyl-azide attached by sortase A and clicked to DBCO-AF647 (labeling ratio 1:1)
Kd [5]: 9.95 nM

Results, then the binder that gave them:

Kd [1]: 1.93 nM
koff [2]: 0.00075 s⁻¹
B1: hOX40-Nb O18 (VHH)
VHH: B2 VHH
modifications: biotin where immobilised in BLI (site not stated)

Kd [1]: 0.21 nM
koff [2]: 2e-05 s⁻¹
B3: hOX40-Nb O12 (VHH)
VHH: B4 VHH
modifications: biotin where immobilised in BLI (site not stated)

koff [2]: 0.00117 s⁻¹
B6: hOX40-Nb O7 (VHH)
VHH: B7 VHH
modifications: biotin where immobilised in BLI (site not stated)

Kd [6]: ~150 nM
B8: hOX40-Nb O7 (VHH)
VHH: B7 VHH
notes: as for B11

Kd [1]: 3.41 nM
koff [2]: 0.00021 s⁻¹
B10: hOX40-Nb O19 (VHH)
VHH: B11 VHH
modifications: biotin where immobilised in BLI (site not stated)

Kd [9]: 0.2 to 3.4 nM
B14: recombinant hOX40, extracellular part (Leu 29 - Ala 216) (domain or fragment)
chain: T1 chain
